Results from publication PMC5903968 (FEBS letters, 2018).

Assays:
Assay in all cases: enzyme inhibition assay
[1] = molecular target: MMP-10 catalytic domain (MMP-10CAT) (UniProt P09238 99-263)
[2] = molecular target: T1, human MMP-9 catalytic domain (MMP-9CAT), residues 107-215, 391-443 (human, UniProt P14780 107-215; P14780 391-443)
T1 chain (looked up): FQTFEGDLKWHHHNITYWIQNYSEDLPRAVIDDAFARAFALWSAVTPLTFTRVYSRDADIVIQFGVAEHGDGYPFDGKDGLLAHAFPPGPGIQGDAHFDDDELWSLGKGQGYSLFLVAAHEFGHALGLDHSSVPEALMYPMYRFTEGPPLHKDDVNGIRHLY

[3] = molecular target: MMP-14 catalytic domain (MMP-14CAT) (UniProt P50281 114-287)
[4] = molecular target: T2, MMP-1 catalytic domain (MMP-1CAT) (UniProt P03956 100-269)
T2 sequence (looked up): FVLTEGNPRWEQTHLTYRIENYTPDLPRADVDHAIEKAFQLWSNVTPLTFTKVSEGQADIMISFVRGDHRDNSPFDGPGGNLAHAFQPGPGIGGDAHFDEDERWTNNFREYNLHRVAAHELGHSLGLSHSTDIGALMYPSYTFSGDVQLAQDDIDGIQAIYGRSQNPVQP

Sequence of MMP-10 catalytic domain (MMP-10CAT) (P09238 99-263): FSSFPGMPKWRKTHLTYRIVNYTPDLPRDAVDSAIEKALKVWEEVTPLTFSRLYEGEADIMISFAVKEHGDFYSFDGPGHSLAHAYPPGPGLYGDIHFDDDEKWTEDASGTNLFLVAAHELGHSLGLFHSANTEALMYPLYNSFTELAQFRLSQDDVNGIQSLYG

Ki [1]: 4.3 nM
Ki [2]: 0.12 nM
Ki [3]: 2.52 nM
Ki [4]: 0.25 nM
B1: N-terminal domain of TIMP-2 (N-TIMP2), wild type (domain or fragment, UniProt P16035 27-152, looked up)
chain: CSCSPVHPQQAFCNADVVIRAKAVSEKEVDSGNDIYGNPIKRIQYEIKQIKMFKGPEKDIEFIYTAPSSAVCGVSLDVGGKKEYLIAGKAEGDGKMHITLCDFIVPWDTLSTTQKKSLNHRYQMGC
